The numbers were not newly measured in publication PMC4303689, which cites them from elsewhere.

The target in the series is His50 (UniProt position 50, KEGVVHGVATV). As to the kind of experiment: NMR. Particulars: not stated (the range of values reflects different ionic strengths); free monomeric alpha-synuclein (inferred from context).

Regarding alpha-synuclein (Homo sapiens), the pKa was 6.5–6.8.
